The target in one assay is CYFRA 21-1. The assay can be described thus: BLI binding affinity of synthesized peptides to immobilized CYFRA 21-1. The note with it: Octet RH96, CYFRA 21-1 immobilized on AR2G biosensors by amine coupling, room temperature, association 90 s, dissociation 180 s, KD = kd/ka. For orientation: In BLI a coated tip is dipped into the sample, and binding shifts an interference pattern.

Assay [1] deals with squamous cell carcinoma antigen (UniProt P29508 1-390). The assay can be described thus: BLI; Octet RH96; CEA, SCCAg or CYFRA 21-1 immobilised on AR2G biosensors by amine coupling; peptides in a range of concentrations; room temperature; association 90 s, dissociation 180 s; KD as kd/ka. The conditions noted are these: both partners purified.
squamous cell carcinoma antigen, sequence (P29508 whole entry): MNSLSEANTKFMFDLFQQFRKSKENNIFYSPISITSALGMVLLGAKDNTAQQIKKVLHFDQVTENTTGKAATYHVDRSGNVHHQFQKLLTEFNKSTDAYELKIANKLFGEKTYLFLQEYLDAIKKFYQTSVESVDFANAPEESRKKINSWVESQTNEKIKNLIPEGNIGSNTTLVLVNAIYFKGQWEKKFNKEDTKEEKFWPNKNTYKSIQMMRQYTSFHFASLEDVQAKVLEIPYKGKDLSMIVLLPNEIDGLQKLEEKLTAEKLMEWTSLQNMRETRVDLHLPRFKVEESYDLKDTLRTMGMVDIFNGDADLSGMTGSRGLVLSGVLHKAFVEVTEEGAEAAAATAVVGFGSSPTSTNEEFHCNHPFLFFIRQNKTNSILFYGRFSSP
In the next assay the target is T1, carcinoembryonic antigen (UniProt P06731 35-685).
T1 construct: carcinoembryonic antigen (CEA), serum tumor marker; also called CEA; CAE
T1 sequence (looked up): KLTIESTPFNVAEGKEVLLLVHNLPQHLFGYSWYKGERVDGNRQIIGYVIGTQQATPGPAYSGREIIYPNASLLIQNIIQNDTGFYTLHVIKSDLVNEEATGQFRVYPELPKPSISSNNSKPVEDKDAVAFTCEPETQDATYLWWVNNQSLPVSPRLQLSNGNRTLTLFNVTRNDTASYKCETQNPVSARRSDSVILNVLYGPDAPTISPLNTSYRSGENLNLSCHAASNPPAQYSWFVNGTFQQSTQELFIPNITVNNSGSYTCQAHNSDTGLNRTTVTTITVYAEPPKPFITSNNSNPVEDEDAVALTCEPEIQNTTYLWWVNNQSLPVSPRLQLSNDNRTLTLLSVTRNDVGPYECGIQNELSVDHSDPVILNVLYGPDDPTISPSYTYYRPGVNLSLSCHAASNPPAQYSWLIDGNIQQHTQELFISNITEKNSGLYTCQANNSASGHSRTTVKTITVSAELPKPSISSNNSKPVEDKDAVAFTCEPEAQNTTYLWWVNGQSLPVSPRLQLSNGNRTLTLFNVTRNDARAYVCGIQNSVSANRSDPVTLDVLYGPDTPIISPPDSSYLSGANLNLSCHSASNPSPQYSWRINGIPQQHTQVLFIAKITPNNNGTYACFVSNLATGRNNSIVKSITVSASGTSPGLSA
Described as above. The conditions noted are these: both partners purified.

The target of a further assay is T2, cytokeratin fragment 19 (Limits are not printed. The conventional CYFRA 21-1 soluble C-terminal fragment of KRT19 (after caspase-3 cleavage at Asp238) is used; from general knowledge, not from the paper or the candidate featu).
T2 chain: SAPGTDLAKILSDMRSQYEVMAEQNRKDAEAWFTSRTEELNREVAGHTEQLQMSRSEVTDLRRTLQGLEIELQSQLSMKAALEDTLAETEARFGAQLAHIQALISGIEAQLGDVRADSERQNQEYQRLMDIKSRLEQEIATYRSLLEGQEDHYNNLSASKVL
Described as above. The conditions noted are these: both partners purified.

Peptide text beside a SMILES is read from it.

As a reminder, the Kd is the constant that tells how readily two partners part at equilibrium. At CYFRA 21-1, `CSCC[C@H](NC(=O)CN)C(=O)N[C@@H](CS)C(=O)N[C@@H](CO)C(=O)N[C@@H](Cc1ccccc1)C(=O)N[C@H](C(=O)N[C@@H](CC(=O)O)C(=O)N[C@H](C(=O)N[C@@H](C)C(=O)N[C@@H](CC(N)=O)C(=O)N[C@@H](CS)C(=O)N1CCC[C@H]1C(=O)O)C(C)C)C(C)C` [Peptide Y3] (H-GMCSFVDVANCP-OH) showed a Kd of 14 nM.

B1: synthetic peptide S1 (peptide)
peptide: TLSWHQNLRLME
notes: dodecapeptide S1 from phage display, synthesized; source: synthetic peptide (Fmoc solid phase, Synpeptide Co., HPLC purified)
Molecule B1 yielded a Kd in assay [1] of 28 nM.

B2: synthetic peptide C3 (peptide)
peptide: WSPSALLPSSVT
notes: dodecapeptide C3 from phage display, synthesized; source: synthetic peptide (Fmoc solid phase, Synpeptide Co., HPLC purified)
B2 returned a Kd with carcinoembryonic antigen of 460 nM.

B3: synthetic peptide C2 (peptide)
peptide: YGVSALSSYVSC
notes: dodecapeptide C2 from phage display, synthesized; source: synthetic peptide (Fmoc solid phase, Synpeptide Co., HPLC purified)
Take B3: the Kd with carcinoembryonic antigen worked out at 870 nM.

B4: synthetic peptide Y3 (peptide)
peptide: GMCSFVDVANCP
notes: dodecapeptide Y3 from phage display, synthesized; source: synthetic peptide (Fmoc solid phase, Synpeptide Co., HPLC purified)
In the assay with cytokeratin fragment 19, B4 gave an equilibrium dissociation constant (Kd) of 14 nM.

B5: synthetic peptide Y1 (peptide)
peptide: CFAGTPSILMLA
notes: dodecapeptide Y1 from phage display, synthesized; source: synthetic peptide (Fmoc solid phase, Synpeptide Co., HPLC purified)
As for B5, the Kd with cytokeratin fragment 19 was 83 nM.

B6: synthetic peptide S2 (peptide)
peptide: AYSRDVVLNMWR
notes: dodecapeptide S2 from phage display, synthesized; source: synthetic peptide (Fmoc solid phase, Synpeptide Co., HPLC purified)
On to B6, for which the affinity in assay [1], expressed as Kd, was 6.1 nM.

B7: synthetic peptide S3 (peptide)
peptide: IQCFSLAPYVGC
notes: dodecapeptide S3 from phage display, synthesized; source: synthetic peptide (Fmoc solid phase, Synpeptide Co., HPLC purified)
B7 returned a Kd in assay [1] of 2900 nM.

B8: synthetic peptide Y10 (peptide)
peptide: QSYFNACWSCNH
notes: source: synthetic peptide (Fmoc solid phase, Synpeptide Co., HPLC purified)
B8 showed a Kd with cytokeratin fragment 19 of 1000 nM.

B9: synthetic peptide C4 (peptide)
peptide: HHRLTRSMQLMM
notes: dodecapeptide C4 from phage display, synthesized; source: synthetic peptide (Fmoc solid phase, Synpeptide Co., HPLC purified)
Regarding B9, in the assay with carcinoembryonic antigen, the affinity, expressed as Kd, was 16 nM. This counts as double-digit nanomolar.

For the origin of these results see article PMC11679068, “Affinity Peptide-Based Circularly Permuted Fluorescent Protein Biosensors for Non-Small Cell Lung Cancer Diagnosis” (Sensors (Basel, Switzerland), 2024).
